Where a chain is given by its changes, count along the chain named. Names and notes keep the numbering of the source. Where two headings read alike, the source gives them in different places.
Experiments:
[1] = system: HEK293.mfMSR1 cells (monkey MSR1); experiment: Electrochemiluminescence antibody binding assay on MSR1-expressing cells; assay type: cell-based, Macaca fascicularis
[2] = molecular target: T1, Ac-LDL binding to His9-hMSR1 (Homo sapiens, UniProt P21757); experiment: Competition sandwich ELISA, blocking of Ac-LDL binding; conditions: 50 pM Ac-LDL
T1 construct: human MSR1 extracellular domain expressed with a N-terminal nonahistidine tag; His9 (nonahistidine) (N); purchased R&D Systems 2708-MS
T1 sequence (P21757 77-451 limits assumed): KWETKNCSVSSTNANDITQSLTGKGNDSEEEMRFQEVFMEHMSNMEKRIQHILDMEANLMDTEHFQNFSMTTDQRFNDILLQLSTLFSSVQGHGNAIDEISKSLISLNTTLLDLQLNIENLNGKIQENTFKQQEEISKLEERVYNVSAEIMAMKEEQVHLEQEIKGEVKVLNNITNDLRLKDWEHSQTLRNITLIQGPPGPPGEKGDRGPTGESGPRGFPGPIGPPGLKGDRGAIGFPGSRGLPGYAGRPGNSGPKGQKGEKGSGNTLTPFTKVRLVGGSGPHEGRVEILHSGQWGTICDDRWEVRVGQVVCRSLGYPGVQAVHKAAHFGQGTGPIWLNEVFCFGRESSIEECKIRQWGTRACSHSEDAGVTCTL
Protocol: The ability of anti-MSR1 antibodies disclosed herein to block the binding of various ligands to human MSR1 was measured using three competition sandwich ELISA assays. The ligands used in the assays were: (1) acetylated LDL (Ac-LDL), (2) oxidized LDL (Ox-LDL), and (3) advanced glycation end-products of bovine serum albumin (AGE-BSA).
Anti-MSR1 antibodies or isotype control antibodies were serially diluted as appropriate for each tested ligand and added in duplicate for each serial dilution set to microtiter plates coated with His9-hMSR1. Buffer alone was also added to wells on each coat. […] This assay was conducted in four different assay runs.
Data analysis was performed using a sigmoidal dose-response model within Prism™ software (GraphPad). Percent blockade at maximum concentration of the antibody tested in each assay was calculated as an indicator of the ability of the antibodies to block the binding of Ac-LDL, Ox-LDL or biot-AGE-BSA to His9-hMSR1 on the plate relative to the baseline of the assay. In the calculation, binding signal of the same concentrations of Ac-LDL, Ox-LDL, or biot-AGE-BSA used for the assays in the absence of antibody was referenced as 100% binding or 0% blocking, while the baseline of the assay, defined as binding signal of the sample of buffer without MSR1 ligands or antibody, was referenced as 0% binding or 100% blocking. The maximum percent blockade at the highest concentration of antibody tested in each assay are reported for all antibodies.

[3] = system: LPS-induced IL-1β release in differentiated THP-1 cells; experiment: LPS-mediated IL-1β release assay; assay type: cell-based, human; conditions: for IC50: 100 ng/ml LPS for 5 hours, read-out: IC50, inhibition of LPS-induced IL-1β secretion
Protocol: To test the anti-inflammatory properties of anti-MSR1 antibody-steroid conjugates in vitro, a lipopolysaccharide (LPS)-mediated IL-1β release assay was performed. For the assay, THP-1 cells were seeded onto 96 well plates at 40,000 cells/well in media containing RPMI supplemented with 10% FBS and pencillin/streptomycinin and differentiated with 200 nM Phorbol Myristate Acetate (PMA) for 3 days. After the 3-day differentiation period, three-fold serial dilutions of antibody drug conjugates, unconjugated antibodies, or free payloads in fresh media were added to the cells at final concentration ranging from 100 nM to 0.01 nM. Media alone served as a blank control. Subsequently at 24, 48, or 72 hours later, cells were treated with 100 ng/ml LPS (InVivoGen, Cat #tlrl-eklps) for 5 hours. The cell media was then collected, and IL-1β levels were measured using a V-PLEX Proinflammatory Panel 1 human kit (Meso Scale Diagnostics, Cat #15049D-2) as per manufacturer's instructions. Subsequently, the plate was read on a Meso Scale Diagnostics instrument.
IC50 values were determined from a four-parameter logistic equation over a 10-point response curve (GraphPad Prism). All IC50 values are expressed in M (molar) concentration. The IC50 values and IL-1β amount at the maximum concentration of antibody-steroid conjugates or controls are shown in Table 22 each of the time point tested.

B1: H1H21227N-N297Q: "modified versions of 21227N (H1H21227N-N297Q and H1H21227N-N297D)"; anti-MSR1 antibody "with a N297Q single point mutation" (antibody, V domains shown)
VH: QVQLVQSGAEVKKPGASVKVSCKVSGYTLTELSIHWVRQVPGKGLEWMGGFDPEEGETIFAQEFRDRVTLTEDTSPDTAYMELSSLKSEDAAVYYCTTPRYCNNGICYDYWGQGTLVTVSS
VL: DIQMTQSPSSLSASVGDRVTITCRASQSISNYLNWYQQKPGKAPKLLIYTASSLQSGVPSRFSGSGSGTDFTLTISSLQTEDFATYYCQQSYSNFPITFGQGTRLEIKR
**Q.** What does the source list for B1?
**A.** Ratio of 11 nM Antibody Binding Signal (RLU) to isotype control, HEK293.mfMSR1 [1]: 23; Anti-MSR1 antibody (100 nM) blocking of Ac-LDL binding to His9-hMSR1 % Blocking [2]: 105%

B2: H1H21231N-N297Q: modified version of "21231N (H1H21231N-N297Q) anti-MSR1 antibodies" with "a N297Q single point mutation" (antibody, V domains shown)
VH: EVQLVESGGGLVQPGGSLRLSCAASGFTFSDHYMDWVRQAPGKGLEWVGRTRNKANSHTTEYTASVTGRFTISRDDSRNSLYLQMNSLKTEDTAVYYCVRAGIIGTLFDYWGQGTLVTVSS
VL: B1 VL with S7F, N31S, Y32F, Y36F, L46F, T50A, T80P, N94S, F95P
**Q.** How did the “Anti-MSR1 antibody (100 nM) blocking of Ac-LDL binding to His9-hMSR1 % Blocking” value (shortened to “Anti-MSR1 antibody … to His9-hMSR1 % Blocking”) [2] turn out when B2 was run?
**A.** −60%

B3: H1H21227N: "anti-MSR1 antibodies ... (21227N, 21231N, 21234N) were produced with the original human Fcγ portion"; "H1H" = human IgG1 Fc (antibody, V domains shown)
VH: B1 VH
VL: B1 VL
modifications: human IgG1 Fc
notes: "anti-MSR1 antibodies ; (21227N, 21231N, 21234N) were produced with the original human Fcγ portion"; "H1H" = human IgG1 Fc
**Q.** How did the “Ratio of 11 nM Antibody Binding Signal (RLU) to isotype control, HEK293.mfMSR1” value [1] turn out when B3 was run?
**A.** 26

**Q.** And the “Anti-MSR1 antibody … to His9-hMSR1 % Blocking” value [2]?
**A.** 105%

B4: H1H21227N-N297D: "The 21227N antibody was also produced as a third version with a N297D mutation" (antibody, V domains shown)
VH: B1 VH
VL: B1 VL
**Q.** Which results are given for B4?
**A.** Ratio of 11 nM Antibody Binding Signal (RLU) to isotype control, HEK293.mfMSR1 [1]: 25; Anti-MSR1 antibody (100 nM) blocking of Ac-LDL binding to His9-hMSR1 % Blocking [2]: 101%

B5: H1H21231N: "anti-MSR1 antibodies ... (21227N, 21231N, 21234N) were produced with the original human Fcγ portion"; "H1H" = human IgG1 Fc (antibody, V domains shown)
VH: B2 VH
VL: B1 VL with S7F, N31S, Y32F, Y36F, L46F, T50A, T80P, N94S, F95P
modifications: human IgG1 Fc
notes: as for B3
**Q.** B5 was tested. Which “Ratio of 11 nM Antibody Binding Signal (RLU) to isotype control, HEK293.mfMSR1” value [1] did it give?
**A.** 75

**Q.** And the “Anti-MSR1 antibody … to His9-hMSR1 % Blocking” value [2]?
**A.** −62%

B6: H1H21234N-N297Q-LP13 (conjugate)
VH: QVQLQESGPGLVKPSETLSLTCTVTGGSISRNYWSWIRQPPGKGLEWIGYIYYSGSIDYNPSLKSRVTISVDTSKNQFSLKLSSMTAADTAVYYCARDRWNWKYGMDVWGQGTTVIVSS
VL: EIVLTQSPGTLSLSPGERATLSCRASQTVRNNYLAWYHQKPGQAPRLLIYGASSRATGIPDRFSGSGSGTDFTLTISRLEPEDFTVYYCHQYGNSPWTFGQGTKMEIKR
**Q.** Which IC50 ([3]; 24-hour time point) does the source give for B6 here?
**A.** 6.29 nM

**Q.** And the IC50 ([3]; 48-hour time point)?
**A.** 3.59 nM

**Q.** What about the IC50 ([3]; 72-hour time point) of the same molecule?
**A.** 1.7 nM

**Q.** And the “IL1beta released at max concentration tested” value (shortened to “IL1beta released”) ([3]; 24 hour treatment before LPS)?
**A.** 119.43 pg/mL

**Q.** And the “IL1beta released” value ([3]; 48 hour treatment before LPS)?
**A.** 69.3 pg/mL

**Q.** What about the “IL1beta released” value ([3]; 72 hour treatment before LPS) of the same molecule?
**A.** 70.31 pg/mL
